# Test results taken from paper PMC314469, “Protein Interaction Networks by Proteome Peptide Scanning” (PLoS Biology, 2004).
# T1: amphyphisin SH3 (AMPH_HUMAN), P49418
# T1 chain: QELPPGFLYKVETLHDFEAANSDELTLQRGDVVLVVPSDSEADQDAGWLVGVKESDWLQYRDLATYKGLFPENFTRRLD
# Molecular target: endophilin SH3 (SH3G2_HUMAN), Q99962
# Experiment: SPOT array
row,"normalised SPOT signal, Boehringer light units (BLU); mean over the file's lines of this peptide",Binder
1,978,MDFSPPRPPYPSYP [Q14934 712-726]
2,236,MDGFLSRPSRPLLQ [Q9P0N2 51-64]
3,2850,MKTSPRRPLILKRR [Q08050 1-14]
4,1910,MKPPPRRPPGNISW [Q02246 907-921]
5,120,MFEDPTRPGKQQQL [Q14209 197-210]
6,2820,MKDIPKRPFSQSLS [Q9Y6E0 364-377]
7,14.8,MENNLRRPNLEAFN [P08700 68-81]
8,34.5,MAASLKRPDSGATG [P20849 777-790]
9,213,MHNFPLRPPPPPPP [Q96HR8 430-444]
10,4340,MAGLPFRPPWGSLS [Q8WUS6 527-541]
11,989,MKRKPGRPRRSPPS [Q9UPS6 353-366]
12,185,MAQSIYRPSKNLDK [Q13573 443-456]
13,1160,AQPQPLRPPRRVSS [Q99743 799-812]
14,1100,MEHSPQRPPRTEPT [Q96M26 524-538]
15,627,MSRVFKRPFSEPSA [Q9NW15 466-479]
16,17300,MKKGPTRPPRPSTP [Q9Y4E6 583-597]
17,54.5,MFQALKRPDDTAFQ [O94901 782-795]

# Molecular target: T1, amphyphisin SH3 (AMPH_HUMAN), P49418
# Experiment: SPOT array
row,"normalised SPOT signal, Boehringer light units (BLU); mean over the file's lines of this peptide",Binder
1,18,MDFSPPRPPYPSYP [Q14934 712-726]
2,295,MDGFLSRPSRPLLQ [Q9P0N2 51-64]
3,150,MKTSPRRPLILKRR [Q08050 1-14]
4,1010,MKPPPRRPPGNISW [Q02246 907-921]
5,18.6,MFEDPTRPGKQQQL [Q14209 197-210]
6,99.5,MKDIPKRPFSQSLS [Q9Y6E0 364-377]
7,27.1,MENNLRRPNLEAFN [P08700 68-81]
8,27.1,MAASLKRPDSGATG [P20849 777-790]
9,68.7,MHNFPLRPPPPPPP [Q96HR8 430-444]
10,73,MAGLPFRPPWGSLS [Q8WUS6 527-541]
11,138,MKRKPGRPRRSPPS [Q9UPS6 353-366]
12,153,MAQSIYRPSKNLDK [Q13573 443-456]
13,25300,AQPQPLRPPRRVSS [Q99743 799-812]
14,14500,MEHSPQRPPRTEPT [Q96M26 524-538]
15,88.8,MSRVFKRPFSEPSA [Q9NW15 466-479]
16,10700,MKKGPTRPPRPSTP [Q9Y4E6 583-597]
17,38.2,MFQALKRPDDTAFQ [O94901 782-795]
